In the Human Domainome abundance scans (Beltran et al. 2025) one finds abundance fitness data, which are given here for 37 variants.

± gives the uncertainty stated by the source.

To fix the notation:
B1: POU domain, class 2, transcription factor 3, residues 186 to 260; numbered along this chain, Q9UKI9 (parent)
chain: SDLEELEKFAKTFKQRRIKLGFTQGDVGLAMGKLYGNDFSQTTISRFEALNLSFKNMCKLKPLLEKWLNDAESSP

This series covers variants of B1. Nature of the series: abundance fitness (aPCA) (normalised: wild type 0, dead -1); higher = more abundant; growth selection in yeast, the domain comes from the species named. The following applies: Homo sapiens.
On to SDLEELEKFAKTFKQRRIKLGFTQGDVGLAMGKLYGNDFSQTTISRFEALNLSFKNMCKLKPLTEKWLNDAESSP, for which the abundance fitness is -0.462 ± 0.084.

Consider SDLEELEKFAKTFKQRRIKLGFTQGDVGLAMGKLYGNDFSQTTISRFEALNLSFKNMCKLKPLYEKWLNDAESSP, for which the abundance fitness is -0.221 ± 0.073.

Take SDLEELEKFAKTFKQRRIKLGFTQGDVGLAMGKLYGNDFSQTTISRFEALNLSFKNMCKLKPLREKWLNDAESSP: the abundance fitness is -0.83 ± 0.071.

On to SDLEELEKFAKTFKQRRIKLGFTQGDVGLAMGKLYGNDFSQTTISRFEALNLSFKNMCKLKPLLEKNLNDAESSP, for which the abundance fitness is -0.909 ± 0.24.

With SDLEELEKFAKTFKQRRIKLGFTQGDVGLAMGKLYGNDFSQTTISRFEALNLSFKNMCKLKPLLEKYLNDAESSP, the abundance fitness is 0.005 ± 0.064.

On to SDLEELEKFAKTFKQRRIKLGFTQGDVGLAMGKLYGNDFSQTTISRFEALNLSFKNMCKLKPLLEKELNDAESSP, for which the abundance fitness was -0.696 ± 0.073.

For SDLEELEKFAKTFKQRRIKLGFTQGDVGLAMGKLYGNDFSQTTISRFEALNLSFKNMCKLKPLLEKQLNDAESSP, the abundance fitness is -0.761 ± 0.1.

Turning to SDLEELEKFAKTFKQRRIKLGFTQGDVGLAMGKLYGNDFSQTTISRFEALNLSFKNMCKLKPLLEKMLNDAESSP, the abundance fitness was -0.306 ± 0.056.

With SDLEELEKFAKTFKQRRIKLGFTQGDVGLAMGKLYGNDFSQTTISRFEALNLSFKNMCKLKPLLEKCLNDAESSP, the abundance fitness was -0.282 ± 0.053.

As to SDLEELEKFAKTFKQRRIKLGFTQGDVGLAMGKLYGNDFSQTTISRFEALNLSFKNMCKLKPLLEKFLNDAESSP, the abundance fitness is -0.004 ± 0.056.

As for SDLEELEKFAKTFKQRRIKLGFTQGDVGLAMGKLYGNDFSQTTISRFEALNLSFKNMCKLKPLLEKGLNDAESSP, the abundance fitness was -0.804 ± 0.045.

Consider SDLEELEKFAKTFKQRRIKLGFTQGDVGLAMGKLYGNDFSQTTISRFEALNLSFKNMCKLKPLLEKTLNDAESSP, for which the abundance fitness was -0.612 ± 0.085.

For SDLEELEKFAKTFKQRRIKLGFTQGDVGLAMGKLYGNDFSQTTISRFEALNLSFKNMCKLKPLLEKHLNDAESSP, the abundance fitness is -0.44 ± 0.15.

As to SDLEELEKFAKTFKQRRIKLGFTQGDVGLAMGKLYGNDFSQTTISRFEALNLSFKNMCKLKPLLEKALNDAESSP, the abundance fitness is -0.603 ± 0.058.

On to SDLEELEKFAKTFKQRRIKLGFTQGDVGLAMGKLYGNDFSQTTISRFEALNLSFKNMCKLKPLLEKILNDAESSP, for which the abundance fitness is -0.419 ± 0.14.

Take SDLEELEKFAKTFKQRRIKLGFTQGDVGLAMGKLYGNDFSQTTISRFEALNLSFKNMCKLKPLLEKSLNDAESSP: the abundance fitness is -0.741 ± 0.066.

Consider SDLEELEKFAKTFKQRRIKLGFTQGDVGLAMGKLYGNDFSQTTISRFEALNLSFKNMCKLKPLLEKDLNDAESSP, for which the abundance fitness was -0.706 ± 0.16.

Consider SDLEELEKFAKTFKQRRIKLGFTQGDVGLAMGKLYGNDFSQTTISRFEALNLSFKNMCKLKPLLEKLLNDAESSP, for which the abundance fitness is -0.246 ± 0.037.

For the variant SDLEELEKFAKTFKQRRIKLGFTQGDVGLAMGKLYGNDFSQTTISRFEALNLSFKNMCKLKPLLEKRLNDAESSP, the abundance fitness was -0.731 ± 0.054.

For SDLEELEKFAKTFKQRRIKLGFTQGDVGLAMGKLYGNDFSQTTISRFEALNLSFKNMCKLKPLLLKWLNDAESSP, the abundance fitness was -0.043 ± 0.033.

SDLEELEKFAKTFKQRRIKLGFTQGDVGLAMGKLYGNDFSQTTISRFEALNLSFKNMCKLKPLLNKWLNDAESSP: the abundance fitness was -0.047 ± 0.25.

For the variant SDLEELEKFAKTFKQRRIKLGFTQGDVGLAMGKLYGNDFSQTTISRFEALNLSFKNMCKLKPLLWKWLNDAESSP, the abundance fitness was -0.211 ± 0.041.

Regarding SDLEELEKFAKTFKQRRIKLGFTQGDVGLAMGKLYGNDFSQTTISRFEALNLSFKNMCKLKPLLHKWLNDAESSP, the abundance fitness was -0.05 ± 0.32.

SDLEELEKFAKTFKQRRIKLGFTQGDVGLAMGKLYGNDFSQTTISRFEALNLSFKNMCKLKPLLTKWLNDAESSP: the abundance fitness is -0.133 ± 0.054.

In the case of SDLEELEKFAKTFKQRRIKLGFTQGDVGLAMGKLYGNDFSQTTISRFEALNLSFKNMCKLKPLLKKWLNDAESSP, the abundance fitness was 0.042 ± 0.057.

As for SDLEELEKFAKTFKQRRIKLGFTQGDVGLAMGKLYGNDFSQTTISRFEALNLSFKNMCKLKPLLSKWLNDAESSP, the abundance fitness is -0.096 ± 0.037.

On to SDLEELEKFAKTFKQRRIKLGFTQGDVGLAMGKLYGNDFSQTTISRFEALNLSFKNMCKLKPLLFKWLNDAESSP, for which the abundance fitness is -0.118 ± 0.059.

For the variant SDLEELEKFAKTFKQRRIKLGFTQGDVGLAMGKLYGNDFSQTTISRFEALNLSFKNMCKLKPLLCKWLNDAESSP, the abundance fitness is -0.033 ± 0.064.

As for SDLEELEKFAKTFKQRRIKLGFTQGDVGLAMGKLYGNDFSQTTISRFEALNLSFKNMCKLKPLLPKWLNDAESSP, the abundance fitness is -0.58 ± 0.083.

For the variant SDLEELEKFAKTFKQRRIKLGFTQGDVGLAMGKLYGNDFSQTTISRFEALNLSFKNMCKLKPLLRKWLNDAESSP, the abundance fitness was -0.197 ± 0.036.

Take SDLEELEKFAKTFKQRRIKLGFTQGDVGLAMGKLYGNDFSQTTISRFEALNLSFKNMCKLKPLLYKWLNDAESSP: the abundance fitness is -0.215 ± 0.074.

As for SDLEELEKFAKTFKQRRIKLGFTQGDVGLAMGKLYGNDFSQTTISRFEALNLSFKNMCKLKPLLVKWLNDAESSP, the abundance fitness is -0.095 ± 0.033.

Turning to SDLEELEKFAKTFKQRRIKLGFTQGDVGLAMGKLYGNDFSQTTISRFEALNLSFKNMCKLKPLLIKWLNDAESSP, the abundance fitness is 0.023 ± 0.13.

For the variant SDLEELEKFAKTFKQRRIKLGFTQGDVGLAMGKLYGNDFSQTTISRFEALNLSFKNMCKLKPLLAKWLNDAESSP, the abundance fitness is -0.07 ± 0.033.

Take SDLEELEKFAKTFKQRRIKLGFTQGDVGLAMGKLYGNDFSQTTISRFEALNLSFKNMCKLKPLLMKWLNDAESSP: the abundance fitness was found to be 0.043 ± 0.058.

SDLEELEKFAKTFKQRRIKLGFTQGDVGLAMGKLYGNDFSQTTISRFEALNLSFKNMCKLKPLLQKWLNDAESSP: the abundance fitness is -0.109 ± 0.057.

With SDLEELEKFAKTFKQRRIKLGFTQGDVGLAMGKLYGNDFSQTTISRFEALNLSFKNMCKLKPLLDKWLNDAESSP, the abundance fitness is -0.031 ± 0.061.
